In patent publication US11149086B2, “KV1.3 binding immunoglobulins” (Ablynx N.V., priority 2014, dated 2021):

Columns and labels:
human Kv1.3 = biological target: T1, human Kv1.3 (Homo sapiens, UniProt P22001); assay: IonWorks Quattro automated perforated patch clamp, Kv1.3-expressing CHL cells; assay type: cell-based; details: 6 to 7 min incubation
T1 construct: cell lines stably expressing the full length human Kv1.3 channel
Text: Selected Nanobodies were electrophysiologically characterized on human Kv1.3 on the IonWorks automated perforated-Patch Clamp using Kv1.3-expressing Chinese Hamster Lung (CHL) cells. The procedure for evaluating the modulatory effect of the purified Nanobodies on human Kv1.3 via electrophysiological recordings is given below.
IonWorks Quattro (Molecular Devices) is a second-generation screening instrument that provides membrane voltage control and provides a direct electrophysiological assay for screening and characterization of compounds. It is an automated, high-throughput planar perforated patch clamp that uses a 384-well PatchPlate™ substrate.
Extracellular solution contained (in mM): 138 NaCl, 2.7 KCl, 0.9 CaCl2, 0.5 MgCl2, 8 Na2HPO4, and 1.5 KH2PO4 (pH 7.3 with NaOH, and 285-290 mOsmolar). The intracellular solution contained (in mM): 100 K-gluconate, 40 KCl, 3.2 EGTA, 5 HEPES and 3.2 MgCl2 (pH 7.3 with KOH, and 300-315 mOsmolar). These solutions were freshly made, stocked for no longer than a month at 4° C. and filtered prior to use. The selected Nanobodies were directly diluted in extracellular solution to obtain a 3 μM sample solution. […]
The basic principles of IonWorks automated patch clamp electrophysiology are described by Schroeder et al. (J Biomol Screen 8(1):50-64, 2003). […] In PPC mode, an ensemble average of the current from up to 64 cells per well was recorded. […]

CCR7−CD45RA− T cells = assay type: cell-based, human
Text: The purified anti-Kv1.3 Nanobodies were characterized in a T Cell-activation assay. Human T Cells were first collected from Buffy Coat blood (from healthy volunteers, Bloodbank Gent) using RosetteSep (StemCell Technologies, #15061) followed by an enrichment on Ficoll-Paque™ PLUS (GE Healthcare #17-1440-03). CCR7−CD45RA− T cells were isolated through negative selection using biotinylated antibodies against CD45RA (BD Bioscience #624008) and CCR7 (BD Bioscence #624009) in addition to the Dynabeads Biotin Binder (Invitrogen #110.47). The purity of the population was afterwards checked with anti-CD3 (eBioscience #12-0037-73); anti-CD8 (BD Bioscience #345775); anti-CD4 (BD Bioscience #345771); anti-CD45RO (BD Bioscience #555493); anti-CD45RA (BD Bioscience #550855); anti-rat IgG (Jackson ImmunoResearch Laboratories #112-116-143); anti-CD19 (BD Bioscience #555413) and anti-Human CCR7 (R&D Systems #MAB197) labeled antibodies in flow cytometric assay.
Isolated CCR7^−CD45RA^− T Cells were then stimulated on anti-CD3 (eBioscience 16-0037-85; 540 ng/ml) coated 96-well plates at a concentration of 200 000 cells/well in absence or presence of dilution series of anti-Kv1.3 antibodies and ShK positive control (Smartox, #08SHK001). After 72 h, IFN-gamma production was measured with anti-human IFNγ antibody capture in ELISA (BD Bioscence #551221) combined with biotinylated anti-human IFNγ (BD Bioscience, #554550) and streptavidin-HRP (Dakocytomation #P0397) as detection (FIG. 11A-11B).
In addition, also CD25 expression was measured in flow cytometry, using an anti-CD25 antibody (BD Pharmingen, cat 557138) (FIG. 11C-11D). […]

T1 sequence (P22001 whole entry): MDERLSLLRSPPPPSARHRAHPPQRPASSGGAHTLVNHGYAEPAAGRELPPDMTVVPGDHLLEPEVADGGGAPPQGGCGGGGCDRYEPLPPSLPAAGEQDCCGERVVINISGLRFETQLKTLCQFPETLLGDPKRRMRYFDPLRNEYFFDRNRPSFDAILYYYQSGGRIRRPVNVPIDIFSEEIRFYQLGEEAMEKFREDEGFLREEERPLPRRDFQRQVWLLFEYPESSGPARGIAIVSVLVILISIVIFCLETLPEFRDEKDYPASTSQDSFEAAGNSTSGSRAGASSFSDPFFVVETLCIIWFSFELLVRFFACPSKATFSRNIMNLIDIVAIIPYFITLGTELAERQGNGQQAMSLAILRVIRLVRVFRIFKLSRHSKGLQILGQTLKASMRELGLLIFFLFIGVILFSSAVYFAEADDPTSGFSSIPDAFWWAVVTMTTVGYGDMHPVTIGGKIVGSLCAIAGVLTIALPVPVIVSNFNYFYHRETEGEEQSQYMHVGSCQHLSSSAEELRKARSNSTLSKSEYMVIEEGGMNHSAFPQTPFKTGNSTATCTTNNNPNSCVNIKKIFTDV

B1: A019400003: monovalent anti-Kv1.3 Nanobody, family 1 (protein)
VHH: EVQLVESGGGLVQAGGSLSLSCTASGGTFRNFGMGWFRQAQGKEREFVAAISRTGGHTYYQDSVKGRFTISKDNAKNILSLQMNSLKPEDTAVYYCAARFRFGDGTYYYQRAFYDFWGQGTQVTVSS
modifications: Nanobody sequence
effect on Kv1.3 current traces on IonWorks, in words (human Kv1.3): biphasic modulatory effect
inhibition of T-cell stimulation (IFNγ, CD25), in words (CCR7−CD45RA− T cells; anti-CD3 stimulation): did not block
IC50 (in M) CD25 read out (CCR7−CD45RA− T cells; monovalent Nanobodies, plate bound anti-CD3): no effect
IC50 (in M) IFNγ read out (CCR7−CD45RA− T cells; monovalent Nanobodies, plate bound anti-CD3, 72 h): no effect
